The text below walks through data of patent publication US20220267441A1.

Substitutions are numbered along the chain they refer to. Where only a bound is given, the exact number is not on record here.

B1: Antibody C (AbC) (antibody, IgG1, V domains shown)
VH: EVQLVESGGGLVQPGGSLRLSCAASGFTFNNYWMTWVRQAPGKGLEWVSSISSSGGSIYYPDSVKDRFTISRDNAKNSLYLQMNSLRAEDMAVYYCARLYYYDGGGDAWGQGTLVTVSS
VL: GIQMTQSPSSLSASVGDRVTITCKASQDINKYLDWYQQKPGKAPKLLIYNTNNLHTGIPSRFSGSGSGTDYTLTISSLQPEDFATYYCLQHISRWTFGGGTKVEIK
B2: Antibody B (AbB) (antibody, IgG1, V domains shown)
VH: EVQLVESGGGLVQPGGSLRLSCAASGFTFTNFWMAWIRQAPGKGLEWVASISSSGGSIYYPDSVKDRFTISRDNSKNTLYLQMNSLRAEDTAVYYCVKFHHYSGGGDAWGQGTLVTVSS
VL: B1 VL with G1D, D28N, Y49H, N50Y, I92S
B3: Antibody A (AbA) (antibody, V domains shown)
VH: EVQLLESGGGLVQPGGSLRLSCAASGFTFNNYWMTWVRQAPGKGLEWVSSISSSGGSIYYPDRVKGRFTISRDNSKNTLYLQMNSLRAEDTAVYYCARDERWAGAMDAWGQGTTVTVSS
VL: DIQMTQSPSSLSASVGDRVTITCKASQNINKNLDWYQQKPGKAPKLLIYETNNLQTGVPSRFSGSGSGTDFTLTISSLQPEDFATYYCYQHNSRFTFGQGTKLEIK
B4: Antibody 2 (Ab2) (antibody, V domains shown)
VH: EVQLVESGGGLVQPGGSLRLSCAASGFTFEAYSMNWVRQAPGKGLEWVSYISLSGATIHYADSVKGRFTISRDNAKNSLYLQMNSLRAEDTAVYYCARGGQYYYDSSDYGEVAFDIWGQGTMVTVSS
VL: DIVMTQSPLSLPVTPGEPASISCRSSQSLVSNGYNYLDWYLQKPGQSPQLLIYFGSSRASGVPDRFSGSGSGTDFTLKISRVEAEDVGVYYCMQRRRTPWSFGGGTKVEIK
B5: Antibody 3 (Ab3) (antibody, V domains shown)
VH: B4 VH with E1Q, Q13K, E30G, A31G, L53I, H59T
VL: DIVMTQSPLSLPVTPGEPASISCRSSQSLVSNGYNYLDWYLQKPGQSPQLLIYFGSSRASGVPDRFSGSGSGTDFTLKISRVEAEDVGVYYCMQRRRTPPFTFGGGTKVEIK
B6: Antibody 5 (Ab5) (antibody, V domains shown)
VH: B4 VH with D105T
VL: B4 VL with N32S
B7: Antibody 7 (Ab7) (antibody, V domains shown)
VH: B4 VH with E1Q, Q13K, E30G, A31G, L53I, H59T
VL: B5 VL with N32S
B8: Antibody 4 (Ab4) (antibody, V domains shown)
VH: B4 VH with D105T
VL: B4 VL
B9: Antibody 6 (Ab6) (antibody, V domains shown)
VH: B4 VH with D105T, M122L
VL: B4 VL with M4L, N32S

purified cynomolgus CD45 ectodomain (cynomolgus monkey), sequence (chain, as listed by the source limits assumed, form in doubt): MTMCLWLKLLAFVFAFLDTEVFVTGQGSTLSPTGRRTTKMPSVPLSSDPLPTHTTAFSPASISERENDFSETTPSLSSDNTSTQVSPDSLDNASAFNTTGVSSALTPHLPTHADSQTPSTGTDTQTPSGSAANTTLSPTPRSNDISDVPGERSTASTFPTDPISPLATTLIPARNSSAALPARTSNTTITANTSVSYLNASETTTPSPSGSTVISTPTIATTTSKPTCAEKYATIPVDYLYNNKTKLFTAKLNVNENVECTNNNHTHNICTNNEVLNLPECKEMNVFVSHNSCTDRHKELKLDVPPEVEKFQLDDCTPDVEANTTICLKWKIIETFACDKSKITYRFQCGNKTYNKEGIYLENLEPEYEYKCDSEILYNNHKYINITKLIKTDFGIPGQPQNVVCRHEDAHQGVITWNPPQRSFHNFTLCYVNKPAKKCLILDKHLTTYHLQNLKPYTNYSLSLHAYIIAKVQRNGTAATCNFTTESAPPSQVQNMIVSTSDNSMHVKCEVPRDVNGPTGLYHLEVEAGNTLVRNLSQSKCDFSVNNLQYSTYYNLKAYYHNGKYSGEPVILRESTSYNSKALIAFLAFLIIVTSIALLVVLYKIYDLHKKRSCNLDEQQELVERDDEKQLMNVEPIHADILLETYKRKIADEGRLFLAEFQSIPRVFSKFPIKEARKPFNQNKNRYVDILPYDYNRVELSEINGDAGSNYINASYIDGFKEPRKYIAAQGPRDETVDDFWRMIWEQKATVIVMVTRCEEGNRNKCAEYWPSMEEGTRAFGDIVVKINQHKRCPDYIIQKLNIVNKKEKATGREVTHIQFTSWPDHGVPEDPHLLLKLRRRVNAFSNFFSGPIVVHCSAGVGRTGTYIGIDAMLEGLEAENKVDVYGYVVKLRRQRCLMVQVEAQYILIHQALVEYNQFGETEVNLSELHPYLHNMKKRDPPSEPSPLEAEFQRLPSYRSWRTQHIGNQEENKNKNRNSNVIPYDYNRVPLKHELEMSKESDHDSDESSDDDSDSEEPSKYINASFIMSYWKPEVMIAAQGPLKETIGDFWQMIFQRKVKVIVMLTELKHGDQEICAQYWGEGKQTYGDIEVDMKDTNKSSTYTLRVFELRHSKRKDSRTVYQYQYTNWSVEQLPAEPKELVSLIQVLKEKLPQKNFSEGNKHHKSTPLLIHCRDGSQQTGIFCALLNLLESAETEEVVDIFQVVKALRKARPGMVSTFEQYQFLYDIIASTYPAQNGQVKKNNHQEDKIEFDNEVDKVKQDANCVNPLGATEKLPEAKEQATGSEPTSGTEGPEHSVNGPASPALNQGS
purified rhesus CD45 ectodomain (rhesus macaque), sequence (chain, as listed by the source limits assumed, form in doubt): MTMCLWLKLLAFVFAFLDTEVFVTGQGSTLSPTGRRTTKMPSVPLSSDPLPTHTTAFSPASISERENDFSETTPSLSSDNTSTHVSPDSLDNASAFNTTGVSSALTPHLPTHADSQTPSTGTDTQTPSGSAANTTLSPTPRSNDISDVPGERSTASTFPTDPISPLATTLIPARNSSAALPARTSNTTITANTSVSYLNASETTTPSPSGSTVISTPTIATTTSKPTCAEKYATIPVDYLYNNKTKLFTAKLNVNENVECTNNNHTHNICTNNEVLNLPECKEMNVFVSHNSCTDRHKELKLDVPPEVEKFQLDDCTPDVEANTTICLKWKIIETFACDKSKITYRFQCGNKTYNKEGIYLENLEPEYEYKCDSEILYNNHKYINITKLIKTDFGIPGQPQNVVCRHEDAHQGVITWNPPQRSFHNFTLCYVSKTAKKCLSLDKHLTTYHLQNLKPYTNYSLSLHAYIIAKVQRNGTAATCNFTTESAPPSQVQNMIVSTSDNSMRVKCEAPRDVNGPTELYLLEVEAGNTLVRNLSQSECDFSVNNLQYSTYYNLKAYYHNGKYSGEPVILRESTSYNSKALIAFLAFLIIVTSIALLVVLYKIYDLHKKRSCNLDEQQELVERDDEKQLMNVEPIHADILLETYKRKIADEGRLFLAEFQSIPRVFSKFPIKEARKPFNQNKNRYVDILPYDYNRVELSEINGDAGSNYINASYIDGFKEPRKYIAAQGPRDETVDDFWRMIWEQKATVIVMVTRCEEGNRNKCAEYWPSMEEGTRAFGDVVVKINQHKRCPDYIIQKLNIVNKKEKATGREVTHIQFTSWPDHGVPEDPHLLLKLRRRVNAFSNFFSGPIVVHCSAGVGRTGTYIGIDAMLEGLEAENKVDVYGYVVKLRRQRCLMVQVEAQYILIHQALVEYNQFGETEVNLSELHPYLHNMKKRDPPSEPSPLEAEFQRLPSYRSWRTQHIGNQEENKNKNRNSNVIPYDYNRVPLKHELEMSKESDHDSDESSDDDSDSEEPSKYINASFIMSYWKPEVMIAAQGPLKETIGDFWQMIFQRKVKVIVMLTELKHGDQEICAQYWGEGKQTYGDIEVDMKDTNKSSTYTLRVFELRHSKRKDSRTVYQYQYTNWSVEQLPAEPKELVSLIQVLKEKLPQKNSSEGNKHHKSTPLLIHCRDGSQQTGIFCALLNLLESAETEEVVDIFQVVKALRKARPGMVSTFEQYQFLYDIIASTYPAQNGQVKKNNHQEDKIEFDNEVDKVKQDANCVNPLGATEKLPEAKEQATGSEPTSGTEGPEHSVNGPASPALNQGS

One experiment concerns the target purified cynomolgus CD45 ectodomain (cynomolgus monkey). Kind of experiment: BLI (Octet Red96), antibody on anti-human Fc sensor, 300 nM cynomolgus CD45 ectodomain, 1:1 fit. In general terms: BLI is a label-free optical method that tracks binding on a fibre tip over time.
In turn, B1 displayed a dissociation constant Kd of 25.3 nM, an off-rate (koff) of 0.000282 s⁻¹ and an on-rate constant (kon) of 11100 M⁻¹ s⁻¹.
The molecule B2 had an equilibrium dissociation constant (Kd) of 51.5 nM, a koff of 0.00042 s⁻¹ and a kon of 8160 M⁻¹ s⁻¹.
B3 registered a dissociation constant Kd of 34.1 nM, a koff of 0.000322 s⁻¹ and an association rate constant (kon) of 9440 M⁻¹ s⁻¹.

Another experiment shares this target. Nature of the experiment: BLI (Octet Red96), Table 11; the sentence does not name the species of CD45.
As to B1, the fold improved affinity over the parent clone C is above 4 fold.

A further experiment has the same target. Kind of experiment: BLI (Octet Red96), IgG on anti-human Fc sensor, 50 nM CD45 ectodomain, 1:1 fit.
On to B4, for which the equilibrium dissociation constant (Kd) worked out at 1.08 nM, the koff amounted to 0.000129 s⁻¹ and the on-rate constant (kon) came out at 119000 M⁻¹ s⁻¹.
On the same counts, the results for B5 are 1.61 nM, 0.000192 s⁻¹ and 120000 M⁻¹ s⁻¹.
On to B6, for which the Kd stood at 1.4 nM, the koff was found to be 0.000164 s⁻¹ and the kon came to 117000 M⁻¹ s⁻¹.
B7 came in with a Kd of 4.24 nM, a koff of 0.000537 s⁻¹ and an on-rate constant (kon) of 127000 M⁻¹ s⁻¹.
B8 yielded a Kd of 0.721 nM, an off-rate (koff) of 7.89e-05 s⁻¹ and a kon of 110000 M⁻¹ s⁻¹.
In turn, B9 came in with a Kd of 1.3 nM, an off-rate (koff) of 0.000154 s⁻¹ and a kon of 118000 M⁻¹ s⁻¹.

A further experiment has as its target purified rhesus CD45 ectodomain (rhesus macaque). Described as above.
The molecule B4 had a Kd of 1.42 nM, a dissociation rate constant (koff) of 0.000192 s⁻¹ and a kon of 135000 M⁻¹ s⁻¹.
With B5, the Kd came to 1.65 nM, the koff is 0.000222 s⁻¹ and the on-rate (kon) is 135000 M⁻¹ s⁻¹.
B6 gave an equilibrium dissociation constant (Kd) of 1.71 nM, a dissociation rate constant (koff) of 0.000193 s⁻¹ and an association rate constant (kon) of 113000 M⁻¹ s⁻¹.
B7: the Kd was 4.39 nM, the koff was determined as 0.000544 s⁻¹ and the kon was determined as 124000 M⁻¹ s⁻¹.
B8: the dissociation constant (Kd) was 0.867 nM, the dissociation rate constant (koff) stood at 0.000102 s⁻¹ and the kon came to 118000 M⁻¹ s⁻¹.
The corresponding values for B9 are 1.44 nM, 0.000175 s⁻¹ and 122000 M⁻¹ s⁻¹.

In general, Kd refers to the free concentration of one partner at which half of the binding sites on the other are occupied at equilibrium, for simple one-to-one binding. Lower therefore signals higher affinity. For orientation: koff means the first-order rate constant of dissociation. A lower koff goes with a long-lived complex. What is called kon is the second-order rate constant of association.
